Measured values taken from patent publication US20260125649A1, “MEDIUM COMPOSITION AND METHOD FOR CULTURING MESENCHYMAL STEM CELLS” (ACADEMIA SINICA, priority 2018, published 2026).

Key:
Type in all cases: cell-based, human
γ-secretase = γ-secretase activity assay in MSC lysates; details: EpEX-stimulated MSCs
Description: (§1) FIG. 9. EpEX induces the phosphorylation and activity of TACE and γ-secretase. MSCs were stimulated by EpEX for the indicated times, and the activity of TACE and γ-secretase were detected. MSCs were stimulated by EpEX (3 μg/mL) for the indicated times. Western blot analysis was performed to detect the phosphorylation of TACE and Presenilin 2.
ADAM17 activity was measured using the InnoZyme ADAM17 activity kit (Calbiochem). In brief, cell lysates were harvested and loaded into a TACE antibody-coated plate. After 1 h incubation, the lysate was removed and the plate was washed twice. Substrate was added into each well for 5 h at 37° C. After incubation, the fluorescence signal of the reaction product was detected at excitation of 324 nm and emission of 405 nm. For the detection of γ-secretase activity, cell lysates were extracted and 500 μg protein was used. γ-secretase activity was detected by γ-secretase substrate (35 μM).

STAT3 (Tyr705) = test: STAT3 phosphorylation by Western blotting; details: MSCs treated with the substance
Description: After treatment, the protein levels of total STAT3 and phospho-STAT3 (Tyr705) were examined by Western blotting. […] Cell cycle progression was investigated by flow cytometry with PI staining. Fraction of cells in each phase (G1, S, G2/M) of the cell cycle was evaluated. Cells expressing STAT3 shRNA were treated with EpEX for 18 h, after which cell cycle progression was investigated by flow cytometry with PI staining. Fraction of cells in each phase (G1, S, G2/M) of the cell cycle was evaluated. […] The protein levels of cell cycle regulators (cyclin D1, cyclin D2, cyclin E1, CDK4 and CDK9) and pluripotency factors (Oct4, Sox2, c-Myc, Lin28) were examined by Western blotting. MSCs expressing STAT3 shRNA or shLuc were stimulated with EpEX. After treatment, the protein levels of cell cycle regulators (cyclin D1, cyclin D2, cyclin E1, CDK4 and CDK9) and pluripotency factors (Oct4, Sox2, c-Myc, and Lin 28) were examined by Western blotting. […] After treatment, the gene expression of pluripotency factors (Oct4, Sox2, c-Myc, Lin28 and EpCAM) was examined by qPCR.
FIG. 8. EpEX and EGF induce the phosphorylation of EGFR and STAT3. […] The phosphorylation of EGFR (Tyr845) and STAT3 (Tyr705) were examined by Western blotting with specific antibodies.
Western blotting was performed as previously described (Takahashi et al., 2003). […]

RUNX2 = RUNX2 gene expression by qPCR during osteo-induction; details: EpEX in osteogenetic medium
Description: Calcium precipitation was measured by Alizarin Red S (ARS) staining to probe the efficiency of osteogenesis. […] Quantification of osteogenesis, as measured by ARS staining, is shown for each group. MSCs were induced by osteogenetic medium and treated with EpEX at indicated doses. The gene expression of RUNX2 was examined by qPCR. […] ARS staining was performed to check the efficiency of osteogenesis. MSCs were pretreated with let-7 inhibitor and then treated with EpEX for 14 days during osteo-induction. ARS staining was performed to check the efficiency of osteogenesis. […] RUNX2 gene expression was measured by qPCR. MSCs were pretreated with let-7 inhibitor and induced by EpEX. RUNX2 gene expression was examined by qPCR. […] Upon EpEX stimulation, phosphorylation of EGFR-STAT3 signaling is induced and subsequently upregulates the level of Lin28 which inhibits let-7. […]
Total RNA was extracted using TRI reagent (Invitrogen, CA, USA), and 5 μg of total RNA was reverse transcribed using oligo (dT) primer (Fermentas, Glen Burnie, MD, USA) with SuperScript III reverse transcriptase (Invitrogen). Quantitative real time RT-PCR (qPCR) was performed on cDNA using the Light Cycler 480 SYBR Green I Master kit (Roche Applied Science, Indianapolis, IN) and the LightCycler480 System (Roche Applied Science). […]

[1] = tested on: TACE (Ser435), PS2 (Ser327), ERK1/2; test: Western blotting of phosphorylation of TACE, Presenilin 2 and ERK1/2
Description: as §1
FIG. 10. EpEX and EGF induce the phosphorylation of TACE, ERK1/2 and PS2. MSCs were treated with either EGF, EpEX, or co-treated with EGF and EpEX for 5 min. The phosphorylation of ERK1/2 was examined by Western blotting with specific antibodies. […] The phosphorylation of ERK1/2, TACE (Ser435), PS2 (Ser327) were examined by Western blotting with specific antibodies.
Western blotting was performed as previously described (Takahashi et al., 2003). Cells were lysed in lysis buffer (150 mM NaCl, 50 mM Tris-HCl (pH 7.4), 1% Nonidet P-40), containing a protease inhibitor mix (Roche Applied Science). Nuclear fractions and cytoplasmic fractions were separated by the Nuclear/Cytosol Fractionation Kit according to the manufacturer's instructions (BioVision Inc., Milpitas, CA, USA). Protein samples were separated by SDS-PAGE under denaturing conditions, and transferred to a PVDF membrane (Millipore). To probe for pluripotency markers, membranes were incubated with the indicated antibodies against Oct4 (1:1000, Abcam, Cambridge, UK), Nanog (1:1000, Genetex), Lin28 (1:1000, Genetex) or Sox2 (1:1000, Genetex). The CDK and cyclin antibodies were from the CDK and Cyclin Antibody Sampler Kits (Cell Signalling Technology, #9868 and #9869 respectively), including antibodies against cylin D1, D2, E1, and CDK4, CDK9 (1:1000). EpCAM (1:1000, Genetex), phospho-EGFR (1:1000, Cell signaling), EGFR (1:1000, Cell signaling), HMGA2 (1:1000, Cell signaling) or GAPDH (1:10000, Abcam) were also used. After incubation with primary antibody, the membranes were incubated with horseradish peroxidase (HRP)-conjugated secondary antibodies, goat anti-mouse IgG (1:3000, Santa Cruz, CA) or goat anti-rabbit IgG (1:3000, Santa Cruz, CA). […]

- activation of γ-secretase (γ-secretase): induced
B1: EpEX: extracellular domain of human EpCAM, 265 amino acids in length (SEQ ID NO: 2) (protein, listed as Homo sapiens)
chain: MAPPQVLAFGLLLAAATATFAAAQEECVCENYKLAVNCFVNNNRQCQCTSVGAQNTVICSKLAAKCLVMKAEMNGSKLGRRAKPEGALQNNDGLYDPDCDESGLFKAKQCNGTSMCWCVNTAGVRRTDKDTEITCSERVRTYWIIIELKHKAREKPYDSKSLRTALQKEITTRYQLDPKFITSILYENNVITIDLVQNSSQKTQNDVDIADVAYYFEKDVKGESLFHSKKMDLTVNGEQLDLDPGQTLIYYVDEKAPEFSMQGLK
- STAT3 phosphorylation (STAT3 (Tyr705)): stimulates
- RUNX2 transcript level (RUNX2): increased
- phosphorylation of TACE ([1]; EpEX 3 μg/mL): induced
- phosphorylation of γ-secretase (Presenilin 2) ([1]; EpEX 3 μg/mL): induced
- phosphorylation of ERK1/2 ([1]; EpEX, EGFR-dependent): can induce
